Key:
[1] = target: T1, 3×FLAG-NRFL-1 with PDZ I mutated (G26A/Y27A) (C. elegans, UniProt G5EDM4 1-467, G26A | Y27A); assay: pull-down; GST pull-down: 2 µg GST fusion protein and 5 µg recombinant 3×FLAG-NRFL-1, overnight at 4°C in 50 mM Tris pH 7.4, 150 mM NaCl, 5 mM EDTA, 0.1% NP-40; blot with anti-FLAG; conditions: both partners purified
T1 construct: not shown: GST, N-terminal, cleaved; 3×FLAG, N-terminal, kept
T1 sequence (looked up): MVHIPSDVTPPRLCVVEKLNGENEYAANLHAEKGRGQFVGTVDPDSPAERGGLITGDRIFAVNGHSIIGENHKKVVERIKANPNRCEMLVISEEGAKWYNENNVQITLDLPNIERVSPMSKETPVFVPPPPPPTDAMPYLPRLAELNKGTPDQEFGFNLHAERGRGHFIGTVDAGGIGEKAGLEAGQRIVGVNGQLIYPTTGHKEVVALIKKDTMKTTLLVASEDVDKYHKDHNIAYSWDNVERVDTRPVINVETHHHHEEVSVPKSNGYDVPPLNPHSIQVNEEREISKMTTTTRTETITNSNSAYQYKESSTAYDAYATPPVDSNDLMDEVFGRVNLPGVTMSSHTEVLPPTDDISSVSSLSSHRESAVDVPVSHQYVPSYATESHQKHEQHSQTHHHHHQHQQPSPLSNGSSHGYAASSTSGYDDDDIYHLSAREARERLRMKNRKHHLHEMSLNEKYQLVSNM

[2] = target: T2, 3×FLAG-NRFL-1 (wild type) (C. elegans, UniProt G5EDM4 1-467); assay: as above; conditions: both partners purified
T2 construct: NRFL-1 (C01F6.6a), C. elegans, full-length wild type; cDNA first ligated into p3×FLAG-myc-CMV-24, then the 3×FLAG-NRFL-1 fragment moved into pGEX-6P-1; also called recombinant NRFL-1 wild-type; not shown: GST, N-terminal, cleaved; 3×FLAG, N-terminal, kept
T2 sequence (looked up): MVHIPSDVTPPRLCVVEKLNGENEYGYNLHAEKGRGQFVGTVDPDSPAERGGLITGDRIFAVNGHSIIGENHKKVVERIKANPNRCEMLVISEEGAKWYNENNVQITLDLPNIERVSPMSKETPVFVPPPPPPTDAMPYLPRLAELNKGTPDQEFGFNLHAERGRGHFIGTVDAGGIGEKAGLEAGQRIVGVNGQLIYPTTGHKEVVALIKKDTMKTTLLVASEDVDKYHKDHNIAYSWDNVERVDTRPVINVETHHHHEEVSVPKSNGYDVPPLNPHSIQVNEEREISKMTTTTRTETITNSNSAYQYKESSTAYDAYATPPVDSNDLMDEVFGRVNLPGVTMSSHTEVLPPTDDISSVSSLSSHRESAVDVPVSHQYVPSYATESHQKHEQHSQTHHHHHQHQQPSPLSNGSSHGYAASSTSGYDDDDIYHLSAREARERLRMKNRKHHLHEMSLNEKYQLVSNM

B1: GST fusion of AAT-6 C-terminus tail corresponding to residues 487–523 (domain or fragment, C. elegans, UniProt Q22397 487-523, looked up)
chain: GDEEMKNAIGGAESESEKVPAYKISPTGNGQFKCTRM
notes: also called GST-AAT-6; source: E. coli BL21 (DE3), purified (Glutathione Sepharose 4B); not shown: GST, N-terminal, kept
B1: binds [1]; binds [2].

Source: article PMC3419730, “NRFL-1, the C. elegans NHERF Orthologue, Interacts with Amino Acid Transporter 6 (AAT-6) for Age-Dependent Maintenance of AAT-6 on the Membrane” (PLoS ONE, 2012)
